Reference: PMC10030265, “The lipid linked oligosaccharide polymerase Wzy and its regulating co-polymerase, Wzz, from enterobacterial common antigen biosynthesis form a complex” (Open Biology, 2023)

Legend:
[1] = molecular target: WzyEPA-GST-distrepII (Pectobacterium atrosepticum) (UniProt Q6CZF1); assay: cryo-EM structure; negative stain and single-particle cryo-EM of the WzyEPA : WzzEPA complex labelled with the IgG anti-strep tag II antibody; model at approximately 20 Å, C2 symmetry, dumbbell of two WzzEPA octamers
[2] = molecular target: the molecule itself; assay: as above
WzyEPA-distrepII = molecular target: T1, WzyEPA-distrepII (Pectobacterium atrosepticum, UniProt Q6CZF1 1-463); assay: quantitative immuno-dot blot; serial dilution of the co-purified complex on nitrocellulose, standard curves of each purified protein, HRP-coupled anti-His and anti-strep tag II, chemiluminescence; corrected for untagged Wzz; conditions: both partners purified
T1 construct: WzyE, ECA polymerase, Pectobacterium atrosepticum SCRI 1043 (ATCC BAA-672); cloned into a proprietary vector constructed by Huanting Liu; Predicted 57 kDa; the distrepII tag is TEV protease-cleavable; source: DDM-solubilised membranes; not shown: distrepII, C-terminal, kept
T1 sequence (looked up): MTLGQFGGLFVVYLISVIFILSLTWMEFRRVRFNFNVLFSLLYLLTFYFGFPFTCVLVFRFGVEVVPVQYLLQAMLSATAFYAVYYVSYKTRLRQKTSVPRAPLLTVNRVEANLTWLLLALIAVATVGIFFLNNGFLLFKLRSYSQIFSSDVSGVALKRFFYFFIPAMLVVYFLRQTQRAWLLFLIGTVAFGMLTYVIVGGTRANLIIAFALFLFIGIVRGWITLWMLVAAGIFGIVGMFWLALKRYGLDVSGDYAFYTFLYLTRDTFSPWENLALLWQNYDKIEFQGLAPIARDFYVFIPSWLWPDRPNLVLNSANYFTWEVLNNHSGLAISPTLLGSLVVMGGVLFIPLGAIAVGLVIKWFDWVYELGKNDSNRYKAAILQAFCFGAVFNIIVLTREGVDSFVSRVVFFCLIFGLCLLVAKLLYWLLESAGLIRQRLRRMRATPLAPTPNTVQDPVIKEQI

[3] = molecular target: the molecule itself; assay: cryo-EM structure; TEV-cleaved, SEC-purified WzzEPA : WzyEPA sample at 5 mg/ml in DDM; Titan Krios; C4 symmetry; 3.6 Å; only WzzEPA seen in the map

Molecule: His6-WzzEPA (from UniProt Q6CZE3 1-348) (natural protein)
- stoichiometry N (WzzEPA per WzyEPA) [1]: 8

B1: His6-WzzEPA (natural protein, Pectobacterium atrosepticum, UniProt Q6CZE3 1-348, looked up)
chain: MKSENLSTGNALIDNELDIRGLFRLLWRGKVWPIAIGLLFAVVALGYSYLVKQEWGATSITDKPTVNMLGGYYSQQQFLRNLDARSFSSPQPEQPSISAGAYDEFIMQLAAYDTRRDFWLQTDYYKQRLEGDEKADAALLDELVNNIQFTARDDGKKTNDSVKLVAETSSDSNTLLRQYVVFASQRAANHLNEEIKGAWAARTIFMKSQIKRQEAVAKAIYDREVRSVELALKIAQQQGISRSQTDTPADEIPASEMFLLGRPMLQARLETLQTSGPHYELDYDQNRAMLATLNVGPTLEASFQTYRYLRTPEEPVKRDSPRRAFLMVMWGAIGVLVGAGVALARRLR
notes: WzzE, polysaccharide co-polymerase of enterobacterial common antigen biosynthesis, Pectobacterium atrosepticum SCRI 1043 (ATCC BAA-672); cloned into pEHisTEV; Predicted 42 kDa; His6 tag is TEV protease-cleavable; The methods say that Wzz ran as a double band and that the lower band was not seen by the anti-His antibody (partly untagged); Isolated Wzz may have various oligomeric states; octamer in …
- stoichiometry N [2]: 8 subunits in the oligomer
- stoichiometry N (WzyEPA-distrepII): 9.6 ± 1.8 His6-WzzEPA : WzyEPA-distrepII (molar ratio)

B2: WzzEPA (TEV protease cleaved, affinity tag removed) (natural protein, Pectobacterium atrosepticum, UniProt Q6CZE3 1-348, looked up)
chain: B1 chain
notes: WzzE, Pectobacterium atrosepticum SCRI 1043; residues I39-V337 modelled, residues 1-39 and 338-348 not visualized; also called full length WzzEPA; source: E. coli C43(DE3), co-expressed with WzyEPA; not shown: His6, N-terminal, cleaved
- stoichiometry N [3]: 8 subunits in the oligomer
